Key:
HCC827 ER15 cells = settings: HCC827 ER15, 72 hours, L3-1Y 0.14 μg/ml, Erlotinib 10 nm
Description: HCC827 ER15, which expresses c-Met at a high level but Cbl at a relatively low level was used in assay for the apoptotic effect of a combination dosage of an anti-c-Met antibody and an EGFR antagonist.
Then, cell viability was measured in the same manner as in Example 1.4.

EBC-1 tumor = experiment: Tumor xenograft model, EBC-1; format: in vivo, BALB/c nude mice; settings: EBC-1 xenograft, 5 mg/kg I.V. once/week, 28th day
Description: (§1) For use in examining in vivo effects of anti-c-Met antibody on tumor growth, male BALB/c nude mice, 5˜6 weeks old, were xenografted with a tumor (all experiments were carried out in Pharmalegacy, China). For at least one week before the transplantation, the mice were acclimated.
(§2) Then, the mice were anesthetized with 1-2% isofuran and xenografted subcutaneously in the right flank with 5×10^6 cells of EBC-1 or HS746T. Seven days after the grafting, the tumors measured 50 mm3 or greater on average. The mice were divided into the following three groups: 5D5 (5 mg/kg I.V. once/week) treated, L3-1Y (5 mg/kg I.V. once/week) treated, and vehicle (PBS 0.2 ml I.V. once/week) treated (control). Each group was composed of 15 mice.
(§3) Over a total of five weeks, volumes and weights of the tumors were measured […]. Tumor volume (V) was calculated according to the following formula: V (mm3)={Long Axis Length (mm)×(Small Axis Length (mm))2}/2.
(§4) L3-1Y (1) is an antibody based on hIgG1 with the Th7 hinge (usually referred to just as L3-1Y) while L3-1Y (2) contains the same epitope but has the hIgG2 backbone. […] Tumor suppression of each of the antibodies was expressed as percentages of volume reduction compared to the tumor volume on the 28th day of the vehicle-treated group (0%) in Table 3 for EBC-1 and Table 4 for HS746T.

HS746T tumor = experiment: Tumor xenograft model, HS746T; format: in vivo, BALB/c nude mice; settings: 5 mg/kg I.V. once/week, 28th day
Description: as §1, §2, §3, §4

C#Cc1cccc(Nc2ncnc3cc(OCCOC)c(OCCOC)cc23)c1 [Erlotinib]
cell viability as percentage of untreated control (HCC827 ER15 cells): almost no apoptotic effects

B1: L3-1Y (2): contains the same epitope as L3-1Y but has the hIgG2 backbone (antibody)
heavy: EVQLVESGGGLVQPGGSLRLSCAASGFTFTDYYMSWVRQAPGKGLEWLGFIRNKANGYTTEYSASVKGRFTISRDNSKNTLYLQMNSLRAEDTAVYYCARDNWFAYWGQGTLVTVSSASTKGPSVFPLAPCSRSTSESTAALGCLVKDYFPEPVTVSWNSGALTSGVHTFPAVLQSSGLYSLSSVVTVPSSNFGTQTYTCNVDHKPSNTKVDKTVERKCCVECPPCPAPPVAGPSVFLFPPKPKDTLMISRTPEVTCVVVDVSHEDPEVQFNWYVDGVEVHNAKTKPREEQFNSTFRVVSVLTVVHQDWLNGKEYKCKVSNKGLPAPIEKTISKTKGQPREPQVYTLPPSREEMTKNQVSLTCLVKGFYPSDIAVEWESNGQPENNYKTTPPMLDSDGSFFLYSKLTVDKSRWQQGNVFSCSVMHEALHNHYTQKSLSLSPGK
light: DIQMTQSPSSLSASVGDRVTITCKSSQSLLASGNQNNYLAWYQQKPGKAPKMLIIWASTRVSGVPSRFSGSGSGTDFTLTISSLQPEDFATYYCQQSYSRPYTFGQGTKVEIKRTVAAPSVFIFPPSDEQLKSGTASVVCLLNNFYPREAKVQWKVDNALQSGNSQESVTEQDSKDSTYSLSSTLTLSKADYEKHKVYACEVTHQGLSSPVTKSFNRGEC
At d28:TV; tumor suppression as percentage of volume reduction compared to vehicle-treated group (EBC-1 tumor): 87.0%
At d28:TV; tumor suppression as percentage of volume reduction compared to vehicle-treated group (HS746T tumor): Regression

— patent publication US9213031B2, “Use of Cbl as biomarker for identifying subject suitable for treatment with anti-c-Met antibody” (SAMSUNG ELECTRONICS CO., LTD., priority 2012, dated 2015)
